For test [1], the target named is Y39E-α-syn (UniProt P37840).
Test [2] deals with full-length α-synuclein (UniProt P37840). Description: NMR titration; 1H-15N HSQC of 0.3 mM 15N-enriched FL- or CT-α-syn titrated with PDI (mole ratios 10:1 to 1:1, 0-300 μM PDI); 20 mM HEPES, 100 mM NaCl, 5 mM TCEP, pH 7.0, 10% D2O, 15 °C; KD from fits of the average CSPs of residues in segment 1 and in segment 2.

Experimental findings from paper PMC9363494 are described below.

Turning to “protein disulfide isomerase (from UniProt P07237 18-508) (enzyme)”, in test [1], the elongation rate constant (k) of aggregation of Y39E-α-syn with PDI, thioflavin T fluorescence (without PDI: ND, plateau was not reached) was determined as 0.21; the half-time (t1/2) of aggregation of Y39E-α-syn with PDI, thioflavin T fluorescence (without PDI: ND, plateau was not reached) stood at 46 h; the lag time (tlag) of aggregation of Y39E-α-syn with PDI, thioflavin T fluorescence (without PDI: ND, plateau was not reached) was 36 h.

With “protein disulfide isomerase, P07237 18-508 (enzyme; other documents disagree on this pair)”, in test [2], the KD of segment 1 was 700 µM and the KD of segment 2 came out at 400 µM.
